Square brackets hold non-standard residues; d marks the D form. Peptide text beside a SMILES is read from it. * marks the point of attachment. DOTA = O=C(O)CN1CCN(CC(=O)O)CCN(CC(=O)*)CCN(CC(=O)O)CC1; NMe1Nal = CN[C@@H](Cc1cccc2ccccc12)C(=O)O; NMeNle = CCCC[C@H](NC)C(=O)O; Sar = CNCC(=O)O
Tests used:
in vitro = in vitro ADME, mouse
Protocol: Drug detoxification, drug metabolism and metabolic stability are important determinants of the efficacy of theranostic candidates in clinical settings. To assess metabolic stability, radiolabelled Compounds [^68Ga]Ga-1-4 and comparative example-2 ([^68Ga]Ga-Cmp ex-2) were challenged by incubation in either human serum, mouse liver or kidney homogenates and HEPES buffer as a negative control. Duplicate samples (750-900 pmol/mL) were incubated at 37° C. with pooled human serum, 15% mouse kidney homogenate, 30% mouse liver homogenate or 20 mM HEPES, pH 7.3 (control). Human blood was collected and serum prepared using SSTII advance vacutainer tubes according to the manufacturer's instructions (Becton Dickinson, New Jersey, USA). Mouse kidney and liver homogenates were prepared by washing the tissues in ice-cold HEPES buffer, pH 7.3 and placing them in pre-chilled tubes containing HEPES buffer and 2.38 mm metal beads (Mo-Bio Laboratories, Hilden, Germany). Tissues were homogenised using the PowerLyzer24 homogeniser (Qiagen, Hilden, Germany) according to the manufacturer's instructions. Ga-68 radiolabelled peptides were incubated with the various lysates at 37° C. and samples were collected at 15, 30, 60 and 90 min. Reactions were terminated by addition of an equal volume of acetonitrile and centrifugation for 2 min at 15,000 rpm. Supernatants were diluted in water before being analysed by HPLC using a Kinetex C18 XB column (5 μm 4.6×150 mm), eluted at 1.5 mL/min of gradient 20-60% MeCN in water containing 0.1% formic acid over 7 min.

A431 CCK2R cells = system: A431 CCK2R cells; parameters: species or system BALB/c nu/nu mice; conditions: mouse, in vivo, iv
Protocol: The diagnostic efficacy of Compounds [^68Ga]Ga-1-4 and [^68Ga]Ga-Cmp ex-2 was assessed using static small animal PET imaging and quantifying biodistribution studies. Female BALB/c nu/nu mice (age 8-10 weeks) were inoculated subcutaneously on the right flank with 3×10^6 A431 CCK2R cells in PBS:Matrigel (1:1). Mice were weighed and tumours measured twice weekly using electronic callipers with tumour volume (mm^3) calculated as length×width×height×π/6. Mice were assigned to imaging and/or biodistribution groups (tumour volumes: 50-500 mm^3). The respective Ga-68 labelled tracer (4-5 MBq, 100 μL, 13.7-14.2 pmoles) was mixed with vehicle solution (75 μL, DMSO:Tween 80:water, 2:2:6 v/v/v) and then administered to six mice intravenously via tail vein injection. Three mice were euthanised for biodistribution 1 h post injection and selected tissues were excised, weighed and counted using a Capintec (Captus 4000e) gamma counter. Three mice were anaesthetised using 1.5% isoflurane and imaged at 1 and 2 h with a G8 Small Animal PET/CT scanner (Perkin Elmer/Sofie Biosciences). A 10 min static PET scan was acquired, followed immediately by a CT scan. PET images were acquired using the G8 acquisition engine software and reconstructed using a 3D maximal likelihood and expectation maximization (ML-EM) algorithm. PET images were analysed using VivoQuant software, version 3.0 (inviCRO Imaging Services and Software) to quantify maximum standardised uptake value in regions of interest (SUVmax). After imaging the 2 h time point the mice were harvested for biodistribution analysis as above.
For blocking CCK2R binding a solution of N-[(3R)-2,3-Dihydro-1-[2-(2-methylphenyl)-2-oxoethyl]-2-oxo-5-phenyl-1H-1,4-benzodiazepin-3-yl]-N′-(3-methylphenyl)-urea (YM022; Sigma Aldrich) was used. […]

[1] = LogD7.4 determination (PBS pH 7.4 / n-octanol); assay type: physicochemical; conditions: PBS/Octanol mix, n = 5
Protocol: The distribution coefficients (LogD7.4) of radiolabelled compounds [^68Ga]Ga-1-4, and [^68Ga]Ga-Cmp ex-2 were assayed by measuring radioactivity distribution in the aqueous phase (phosphate buffer pH7.4) and the organic phase (n-octanol). To determine the distribution coefficient (LogD), Ga-68 radiolabelled compounds were diluted to 20 pmol/mL in PBS (pH 7.4) and an equal volume of n-octanol was added. The mixture was vortexed vigorously for 10 cycles of 1 min at room temperature before being centrifuged for 6 min to separate the two phases. Equal volumes from each phase were aliquoted into individual counting tubes and analysed for 1 min using the Perkin Elmer 2480 Wizard2™ gamma counter (PerkinElmer, Massachusetts, USA). The distribution coefficient was calculated using the following equation [formula]

| SMILES | metabolism in kidney homogenates (in vitro) | metabolism in liver homogenates (in vitro) | tumour to kidney ratio (A431 CCK2R cells) | LogD7.4 [1] | renal / kidney uptake (A431 CCK2R cells) | tumour uptake (A431 CCK2R cells) |
| --- | --- | --- | --- | --- | --- | --- |
| CCCC[C@@H](C(=O)N[C@@H](CC(=O)O)C(=O)N(C)[C@@H](Cc1cccc2ccccc12)C(N)=O)N(C)C(=O)[C@H](Cc1c[nH]c2ccccc12)NC(=O)CN(C)C(=O)[C@H](Cc1ccc(O)cc1)NC(=O)[C@H](C)NC(=O)[C@@H](CCC(=O)O)NC(=O)[C@@H](CCC(=O)O)NC(=O)[C@@H](CCC(=O)O)NC(=O)[C@@H](C)NC(=O)[C@@H](CCC(=O)O)NC(=O)[C@@H](CCC(=O)O)NC(=O)CN1CCN(CC(=O)O)CCN(CC(=O)O)CCN(CC(=O)O)CC1 [[^68Ga]Ga-4, metal not drawn] ({DOTA}-[dE][dE][dA][dE][dE][dE]AY[Sar]W[NMeNle]D[NMe1Nal]-NH2) | no observable metabolites detected | no observable metabolites detected | best tumour to kidney ratio | −2.59 ± 0.02 | – | – |
| CCCC[C@@H](C(=O)N[C@@H](CC(=O)O)C(=O)N(C)[C@@H](Cc1cccc2ccccc12)C(N)=O)N(C)C(=O)[C@H](Cc1c[nH]c2ccccc12)NC(=O)CN(C)C(=O)[C@H](Cc1ccc(O)cc1)NC(=O)[C@H](C)NC(=O)[C@@H](CCC(=O)O)NC(=O)[C@@H](CCC(=O)O)NC(=O)[C@@H](CCC(=O)O)NC(=O)[C@@H](CCC(=O)O)NC(=O)[C@@H](CCC(=O)O)NC(=O)[C@@H](CCC(=O)O)NC(=O)CN1CCN(CC(=O)O)CCN(CC(=O)O)CCN(CC(=O)O)CC1 [[^68Ga]Ga-Cmp ex-2, metal not drawn, reference compound] ({DOTA}-[dE][dE][dE][dE][dE][dE]AY[Sar]W[NMeNle]D[NMe1Nal]-NH2) | no observable metabolites detected | no observable metabolites detected | – | −2.97 ± 0.13 | highest renal uptake | best tumour uptake |

From patent US20260077071A1, “Targeted Delivery of Theranostic Agents” (Peter MacCallum Cancer Institute, priority 2022, published 2026)
